Test results taken from patent US10501502B2, “Allophycocyanin alpha-subunit evolved labeling proteins (smURFPs)” (The Regents of the University of California, priority 2016, dated 2019).

How the values were obtained:
HT1080 tumor xenografts = test: Fluorescence imaging of HT1080 tumor xenografts in vivo; set-up: species or system mice
From the text: HT1080 cells were infected with CMV with smURFP-T2A-mCherry, smURFP-T2A-mCardinal, smURFP, and mCardinal lentiviruses in culture, and expression was verified by fluorescence imaging (FIG. 19a, ≥99% efficiency and FIG. 20a, ≥95% efficiency) using filters described in the previous section. All procedures using mice were approved by UCSD IACUC (#S03172M) and are consistent with the recommendations of the American Veterinary Medical Association. One million HT1080 cells expressing smURFP-T2A-mCherry were injected subcutaneously into the lateral, ventral, and upper right and left quadrant, or smURFP and mCardinal were injected subcutaneously into the lateral, dorsal, and lower right and left quadrant of four 5-week-old athymic nude female mice. Tumors were allowed to grow until ˜0.1-1 cm in diameter (˜2 weeks). Mice were anesthetized with isoflurane (1.5%) at a 2 liter/min flow, injected with ketamine-midazolam (intraperitoneal (IP), 80 mg/kg, 4 mg/kg), placed on a heated pad, and imaged before exogenous BV injection. 250 nmol BV was injected by intravenous (IV) tail vein, and mice were imaged 5, 30, 60, and 120 min after BV injection for smURFP-T2A-mCherry. 250 nmol BV or BVMe2 was injected by intravenous tail vein, and mice were imaged 60 min, 24 h, and 48 h after BV injection for smURFP and mCardinal tumors. Mice were imaged using a Maestro in vivo Imaging System (Cambridge Research & Instrumentation, CRI). FPs were imaged with the following filters: mCherry, EX/EM=590(23)/615LP nm and liquid crystal, 620 nm; mCardinal EX/EM=607(36)645LP nm and liquid crystal, 660 nm; and smURFP EX/EM=620(20)/645LP nm or EX/EM=640(47)/700LP and liquid crystal, 710 nm. […] Tumors were removed, washed 2× in 2 ml DMEM+10% FBS, labeled in 2 ml DMEM+10% FBS+10 μM BV or BVMe2 at 4° C. for 24 h, imaged, labeled in 2 ml DMEM+10% FBS+10 μM BV or BVMe2 at 37° C. for 24 h, and imaged (FIG. 20g).

[1] = Incorporation rates in vitro of BV on initially chromophore-free smURFP; assay type: biochemical
Protocol: EX and EM spectra were obtained using SPEX Fluorolog fluorometer (Horiba). Absorbance spectra were obtained using UV-VIS Spectrophotometer Cary Eclipse (Varian) or UV-2700 (Shimadzu). Quantum yield was determined relative to Cy5. Incorporation rates of BV on 0.5 μM smURFP was performed by addition of smURFP to PBS alone or with 20% fetal bovine serum (FBS) and mixed by pipetting in a quartz cuvette. Chromophore was added last, mixed by pipetting, and fluorescence was recorded using SPEX Fluorolog fluorometer (Horiba). Photobleaching was characterized on bubbles of purified FP or Cy5 within mineral oil using light from a 150 W xenon arc lamp with 100% light through EX/EM=628(40)/680(30) nm for smURFP, TDsmURFP, and Cy5 or EX/EM=665 (45)/725 (50) nm for IFP 1.4 focused with a 40×, 1.2 numerical aperture C-Apochromat oil-immersion lens on a Zeiss Axiovert 200M inverted microscope. Photobleaching times were normalized to reflect an initial illumination intensity producing 1,000 photons per fluorescent molecule per second as previously described^37.

[2] = 0.5 μM smURFP in PBS + 20% FBS, + 0.1 μM BV
[3] = 0.5 μM smURFP in PBS + 20% FBS, + 0.1 μM BV (pH 9.4)
[4] = 0.5 μM smURFP in PBS + 20% FBS, + 0.1 μM BV + 1 mM DTT
[5] = 0.5 μM smURFP in PBS + 20% FBS, + 1 μM BV
[6] = 0.5 μM smURFP in PBS + 20% FBS, + 1 μM BV (pH 9.4)
[7] = 0.5 μM smURFP in PBS + 20% FBS, + 1 μM BV + 1 mM DTT
[8] = 0.5 μM smURFP in PBS + 20% FBS, + 10 μM BV
[9] = 0.5 μM smURFP in PBS + 20% FBS, + 10 μM BV (pH 9.4)
[10] = 0.5 μM smURFP in PBS + 20% FBS, + 10 μM BV + 1 mM DTT
[11] = 0.5 μM smURFP in PBS + 20% FBS, Avg. 3 Conc.
[12] = 0.5 μM smURFP in PBS + 20% FBS, Avg. 3 Conc. (pH 9.4)
[13] = 0.5 μM smURFP in PBS + 20% FBS, Avg. 3 Conc. + 1 mM DTT
[14] = 0.5 μM smURFP in PBS, + 0.1 μM BV
[15] = 0.5 μM smURFP in PBS, + 0.1 μM BV (pH 8)
[16] = 0.5 μM smURFP in PBS, + 0.1 μM BV + 1 mM DTT
[17] = 0.5 μM smURFP in PBS, + 1 μM BV
[18] = 0.5 μM smURFP in PBS, + 1 μM BV (pH 8)
[19] = 0.5 μM smURFP in PBS, + 1 μM BV + 1 mM DTT
[20] = 0.5 μM smURFP in PBS, + 10 μM BV
[21] = 0.5 μM smURFP in PBS, + 10 μM BV (pH 8)
[22] = 0.5 μM smURFP in PBS, + 10 μM BV + 1 mM DTT
[23] = 0.5 μM smURFP in PBS, Avg. 3 Conc.
[24] = 0.5 μM smURFP in PBS, Avg. 3 Conc. (pH 8)
[25] = 0.5 μM smURFP in PBS, Avg. 3 Conc. + 1 mM DTT

B1: smURFP: small ultra-red fluorescent protein, SEQ ID NO: 13, homodimer, covalently attaches biliverdin (protein)
chain: MKTSEQRVNIATLLTENKKKIVDKASQDLWRRHPDLIAPGGIAFSQRDRALCLRDYGWFLHLITFCLLAGDKGPIESIGLISIREMYNSLGVPVPAMMESIRCLKEASLSLLDEEDANETAPYFDYIIKAMS
modifications: homodimer; biliverdin chromophore; smRUFP Variant Polypeptide
- fluorescence change after 250 nmol BV intravenously (HT1080 tumor xenografts; after 2 h): no increase in fluorescence
- fold dimmer than mCardinal in vivo (HT1080 tumor xenografts; at 607 nm): ~7.3 fold
- fold dimmer than mCardinal in vivo (HT1080 tumor xenografts; at 640 nm): ~4 fold
- fluorescence of excised tumors with 10 μM BV or BVMe2 (HT1080 tumor xenografts; ex vivo): enhanced fluorescence
- fluorescence in tumor xenografts without exogenous BV (HT1080 tumor xenografts; mouse, in vivo): visible without exogenous BV
- loss of fluorescence through the skin (HT1080 tumor xenografts; mouse, in vivo): 25%
- fluorescence change after injection of 250 nmol BV or BVMe2 (HT1080 tumor xenografts; smURFP vs mCardinal tumors): no increase in fluorescence in vivo
- fluorescence intensity relative to mCherry in vivo (HT1080 tumor xenografts; without exogenous BV): 35%
- A [1, 2]: 1.1
- T50% [1, 2]: 43 min
- k [1, 2]: 0.016 min⁻¹
- A [1, 3]: 0.95
- T50% [1, 3]: 7.1 min
- k [1, 3]: 0.097 min⁻¹
- A [1, 4]: 0.95
- T50% [1, 4]: 30 min
- k [1, 4]: 0.023 min⁻¹
- A [1, 5]: 1.1
- T50% [1, 5]: 58 min
- k [1, 5]: 0.012 min⁻¹
- A [1, 6]: 0.99
- T50% [1, 6]: 16 min
- k [1, 6]: 0.043 min⁻¹
- A [1, 7]: 0.95
- T50% [1, 7]: 32 min
- k [1, 7]: 0.022 min⁻¹
- A [1, 8]: 1.1
- T50% [1, 8]: 46 min
- k [1, 8]: 0.015 min⁻¹
- A [1, 9]: 0.99
- T50% [1, 9]: 11 min
- k [1, 9]: 0.063 min⁻¹
- A [1, 10]: 0.96
- T50% [1, 10]: 16 min
- k [1, 10]: 0.043 min⁻¹
- A [1, 11]: 1.1
- T50% [1, 11]: 50 min
- k [1, 11]: 0.014 min⁻¹
- A [1, 12]: 0.98
- T50% [1, 12]: 11 min
- k [1, 12]: 0.066 min⁻¹
- A [1, 13]: 0.95
- T50% [1, 13]: 24 min
- k [1, 13]: 0.029 min⁻¹
- A [1, 14]: 1.1
- T50% [1, 14]: 29 min
- k [1, 14]: 0.024 min⁻¹
- A [1, 15]: 1.1
- T50% [1, 15]: 24 min
- k [1, 15]: 0.029 min⁻¹
- A [1, 16]: 1.1
- T50% [1, 16]: 58 min
- k [1, 16]: 0.012 min⁻¹
- A [1, 17]: 1.1
- T50% [1, 17]: 46 min
- k [1, 17]: 0.015 min⁻¹
- A [1, 18]: 1.1
- T50% [1, 18]: 24 min
- k [1, 18]: 0.029 min⁻¹
- A [1, 19]: 1.1
- T50% [1, 19]: 63 min
- k [1, 19]: 0.011 min⁻¹
- A [1, 20]: 1.1
- T50% [1, 20]: 46 min
- k [1, 20]: 0.015 min⁻¹
- A [1, 21]: 1.1
- T50% [1, 21]: 22 min
- k [1, 21]: 0.032 min⁻¹
- A [1, 22]: 1.1
- T50% [1, 22]: 46 min
- k [1, 22]: 0.015 min⁻¹
- A [1, 23]: 1.0
- T50% [1, 23]: 39 min
- k [1, 23]: 0.018 min⁻¹
- A [1, 24]: 1.1
- T50% [1, 24]: 2 min
- k [1, 24]: 0.030 min⁻¹
- A [1, 25]: 1.1
- T50% [1, 25]: 53 min
- k [1, 25]: 0.013 min⁻¹
- chromophore maturation or attachment t50% ([1]; BV attachment): 39^ min
